Laboratory results taken from patent publication US20200017592A1 (Regeneron, published 2020).
Positions count from the first letter of the chain named.

B1: H4H14706P2 (antibody, human IgG4 S228P, kappa, V domains shown)
VH: EVQLVESGGGLVQPGRSLRLSCTASGFTFDDYAIHWVRQSPGKGLEWVSVISWNSDVIGYADSVKGRFTISRDNAKNSLYLQMNSLRAEDTALYYCAKGYNWNFFDYWGQGTLVTVSS
VL: EIVLTQSPATLSLSPGERATLSCRASQSVSSYLAWYQQKPGQAPRLLIYNAANRATDIPARFSGSGSGTDFTLTISSLEPEDFAVYYCQQRSNWPLTFGGGTKVEIKR
notes: Fully human anti-IL-36R antibody
B2: H4H14708P2 (antibody, human IgG4 S228P, kappa, V domains shown)
VH: EVQLVESGGDLVQPGRSLRLSCAASGFTFDDYAMHWVRQAPGKGLEWVSVISWNSDVIAYSDSVKGRFTISRDNAKNSLYLQMNSLRTEDTALYYCTKGHKWSFFDYWGQGTLVTVSS
VL: B1 VL with V29I, Y49F, A51V
notes: as for B1

Tests used:
[1] = biological target: T1, human IL-36R extracellular domain expressed with a C-terminal mouse IgG2a Fc tag (hIL-36R-mFc) (human; mouse, UniProt Q9HB29 20-337); experiment: SPR Biacore 4000, mAb captured on anti-hFc, 25C
T1 construct: not shown: mouse IgG2a Fc, E98-K330
T1 sequence (looked up): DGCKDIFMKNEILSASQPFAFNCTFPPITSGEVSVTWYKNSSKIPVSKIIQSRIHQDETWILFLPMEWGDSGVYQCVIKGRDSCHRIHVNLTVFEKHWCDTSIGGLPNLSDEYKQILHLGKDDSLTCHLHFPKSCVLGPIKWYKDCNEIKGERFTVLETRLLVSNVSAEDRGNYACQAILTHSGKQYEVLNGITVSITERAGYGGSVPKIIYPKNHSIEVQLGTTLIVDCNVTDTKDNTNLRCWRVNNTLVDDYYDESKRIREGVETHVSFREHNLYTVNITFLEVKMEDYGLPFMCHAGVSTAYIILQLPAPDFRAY
Method: (§1) Equilibrium dissociation constants (KD values) for IL-36R binding to purified anti-IL-36R antibodies were determined using a real-time surface plasmon resonance biosensor using a Biacore 4000 instrument. The Biacore sensor surface was first derivatized by amine coupling with a monoclonal mouse anti-human Fc antibody (GE, # BR-1008-39) to capture anti-IL-36R monoclonal antibodies. All binding studies were performed in 0.01 M Hepes pH 7.4, 0.15 M NaCl, 3 mM EDTA, and 0.05% v/v Surfactant Tween-20 (HBS-ET running buffer) at 25° C. and 37° C. Different concentrations of IL-36R reagents, human IL-36R extracellular domain expressed with a C-terminal myc-myc-hexahistidine tag (hIL-36R-MMH), Macaca fascicularis IL-36R extracellular domain expressed with a C-terminal myc-myc-hexahistidine tag (mfIL-36R-MMH: mROR1 signal sequence (M1-A29). Macaca fascicularis IL36R_ecto domain (D20-A336).mycmycHis6), human IL-36R extracellular domain expressed with a C-terminal mouse IgG2a Fc tag (hIL-36R-mFc: mROR1 signal sequence (M1-A29)-human IL36R (D20-Y337)-mouse IgG2aFc (E98-K330)) or an in-line fusion protein of human IL-36R extracellular domain and IL1RAcP extracellular domain expressed with mouse IgG2a Fc tag (hIL-36R-Trap-mFc: mROR1 signal sequence (M1-A29)-human IL36R ecto domain (D20-Y337)-human IL1RacP ecto domain(S21-E359)-mouse IgG2aFc) in HBS-ET running buffer (ranging from 100 nM to 3.7 nM, 3-fold dilutions) were injected over the anti-IL-36R antibody captured surface for 4 minutes at a flow rate of 30 μL/minute and their dissociation in HBS-ET running buffer was monitored for 10 minutes. Kinetic association rate constant (kₐ) and dissociation rate constant (kd) were determined by fitting the real-time sensorgrams to a 1:1 binding model using Scrubber 2.0c curve fitting software. Binding dissociation equilibrium constants (KD) and dissociative half-lives (t_{1/2}) were calculated from the kinetic rate constants as: […]

[2] = biological target: T2, in-line fusion protein of human IL-36R extracellular domain and IL1RAcP extracellular domain expressed with … (human; mouse, UniProt Q9HB29 20-337; Q9NPH3 21-359, limits assumed); experiment: SPR Biacore 4000, mAb captured on anti-hFc, 25C
T2 construct: not shown: mouse IgG2a Fc
T2 sequence (looked up): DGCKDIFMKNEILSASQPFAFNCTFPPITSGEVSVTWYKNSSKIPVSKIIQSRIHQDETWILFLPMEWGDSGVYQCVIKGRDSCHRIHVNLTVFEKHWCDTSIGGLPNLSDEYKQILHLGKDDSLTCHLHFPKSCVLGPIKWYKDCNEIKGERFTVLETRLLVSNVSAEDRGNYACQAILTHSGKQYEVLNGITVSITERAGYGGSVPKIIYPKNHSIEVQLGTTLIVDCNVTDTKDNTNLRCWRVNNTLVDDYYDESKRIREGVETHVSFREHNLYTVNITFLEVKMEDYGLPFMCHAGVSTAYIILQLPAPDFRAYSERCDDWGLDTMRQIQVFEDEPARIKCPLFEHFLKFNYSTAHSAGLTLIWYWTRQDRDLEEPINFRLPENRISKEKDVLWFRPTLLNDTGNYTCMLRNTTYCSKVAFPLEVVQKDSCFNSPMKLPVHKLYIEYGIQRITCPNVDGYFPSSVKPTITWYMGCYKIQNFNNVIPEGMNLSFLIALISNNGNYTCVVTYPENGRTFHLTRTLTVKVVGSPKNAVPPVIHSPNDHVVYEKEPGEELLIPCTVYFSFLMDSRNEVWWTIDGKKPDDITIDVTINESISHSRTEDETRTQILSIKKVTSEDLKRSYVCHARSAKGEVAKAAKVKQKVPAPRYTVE
Method: as §1

[3] = biological target: T1, human IL-36R extracellular domain …; experiment: SPR Biacore 4000, mAb captured on anti-hFc, 37C
Method: as §1

[4] = biological target: T2, in-line fusion protein of human IL-36R …; experiment: SPR Biacore 4000, mAb captured on anti-hFc, 37C
Method: as §1

[5] = biological target: T3, human IL-36R extracellular domain expressed with a C-terminal myc-myc-hexahistidine tag (hIL-36R-MMH) (human, UniProt Q9HB29 20-337); experiment: SPR Biacore T200, mAb captured on anti-hFc, 25C, PBS-T pH 6.0 running buffer
T3 construct: also called Human IL-36R-MMH; REGN2105
Method: (§2) Additional binding experiments were performed to determine the effect of pH on the rate of dissociation of IL-36R bound to purified anti-IL-36R antibodies, which was determined using a real-time surface plasmon resonance biosensor using a Biacore T200 instrument. The Biacore sensor surface was first derivatized by amine coupling with a monoclonal mouse anti-human Fc antibody (GE, # BR-1008-39) to capture anti-IL-36R antibodies. […] Different concentrations of hIL-36R-MMH and mfIL-36R-MMH prepared in PBS-T, pH7.4 buffer (ranging from 100 nM to 11.11 nM, 3-fold dilutions) were injected over the anti-IL-36R antibody captured surface for 4 minutes at a flow rate of 50 μL/minute and their dissociation in two running buffers, PBS-T, pH7.4 and PBS-T, pH 6.0, was monitored for 10 minutes. All of these binding kinetics experiments were performed at 25° C. and 37° C. Kinetic dissociation constant (kd) were determined by fitting the real-time sensorgrams to a 1:1 binding model using Scrubber 2.0c curve fitting software. Binding dissociative half-lives (t_{1/2}) were calculated from kd as: […]

[6] = biological target: T3, human IL-36R extracellular domain …; experiment: SPR Biacore T200, mAb captured on anti-hFc, 25C, PBS-T pH 7.4 running buffer
Method: as §2

[7] = biological target: T3, human IL-36R extracellular domain …; experiment: SPR Biacore T200, mAb captured on anti-hFc, 37C, PBS-T pH 6.0 running buffer
Method: as §2

[8] = biological target: T3, human IL-36R extracellular domain …; experiment: SPR Biacore T200, mAb captured on anti-hFc, 37C, PBS-T pH 7.4 running buffer
Method: as §2

T3 sequence (Q9HB29 other isoform, or with tags, fused parts or gaps limits assumed): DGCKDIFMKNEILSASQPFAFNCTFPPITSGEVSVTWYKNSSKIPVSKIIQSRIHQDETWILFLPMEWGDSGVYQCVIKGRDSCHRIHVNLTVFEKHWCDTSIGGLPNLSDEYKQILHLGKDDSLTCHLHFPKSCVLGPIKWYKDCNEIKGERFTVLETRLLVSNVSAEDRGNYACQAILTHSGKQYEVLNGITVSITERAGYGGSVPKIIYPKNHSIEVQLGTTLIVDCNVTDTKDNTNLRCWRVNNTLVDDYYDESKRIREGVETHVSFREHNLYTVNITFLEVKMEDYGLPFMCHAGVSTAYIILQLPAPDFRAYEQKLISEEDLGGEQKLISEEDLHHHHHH

Binder | 100 nM hIL-36R-mFc Bound (RU) [1] [RU] | Kd [1] [nM] | koff [1] [s⁻¹] | kon [1] [M⁻¹ s⁻¹] | t1/2 [1] [min] | 100 nM hIL-36R-Trap-mFc Bound (RU) [2] [RU] | Kd [2] [nM] | koff [2] [s⁻¹] | kon [2] [M⁻¹ s⁻¹] | t1/2 [2] [min] | 100 nM hIL-36R-mFc Bound (RU) [3] [RU] | Kd [3] [nM] | koff [3] [s⁻¹] | kon [3] [M⁻¹ s⁻¹] | t1/2 [3] [min] | 100 nM hIL-36R-Trap-mFc Bound (RU) [4] [RU] | Kd [4] [nM] | koff [4] [s⁻¹] | kon [4] [M⁻¹ s⁻¹] | t1/2 [4] [min] | further results
B1 | 163 | 0.23 | 0.000132 | 575000 | 87 | 205 | 0.232 | 0.00011 | 477000 | 105 | 207 | 0.449 | 0.000266 | 593000 | 43 | 264 | 0.551 | 0.000271 | 491000 | 43 | 100 nM Human IL-36R-MMH Bound (RU) [5]: 109 RU; koff [5]: 0.000927 s⁻¹; t1/2 [5]: 12 min; 100 nM Human IL-36R-MMH Bound (RU) [6]: 119 RU; koff [6]: 0.000616 s⁻¹; t1/2 [6]: 19 min; 100 nM hIL-36R-MMH Bound (RU) [7]: 132 RU; koff [7]: 0.00233 s⁻¹; t1/2 [7]: 5 min; 100 nM hIL-36R-MMH Bound (RU) [8]: 140 RU; koff [8]: 0.00131 s⁻¹; t1/2 [8]: 9 min
B2 | 146 | 0.317 | 0.000128 | 403000 | 90 | 172 | 0.357 | 0.000129 | 361000 | 90 | 203 | 0.435 | 0.0002 | 460000 | 58 | 239 | 0.656 | 0.000253 | 385000 | 46 | 100 nM Human IL-36R-MMH Bound (RU) [5]: 79 RU; koff [5]: 0.00163 s⁻¹; t1/2 [5]: 7 min; 100 nM Human IL-36R-MMH Bound (RU) [6]: 87 RU; koff [6]: 0.000796 s⁻¹; t1/2 [6]: 15 min; 100 nM hIL-36R-MMH Bound (RU) [7]: 95 RU; koff [7]: 0.00337 s⁻¹; t1/2 [7]: 3 min; 100 nM hIL-36R-MMH Bound (RU) [8]: 105 RU; koff [8]: 0.00177 s⁻¹; t1/2 [8]: 7 min
